Experimental data: US20080292632A1 (US Dept. of Health and Human Services, published 2008)

Experiments:
Assay in all cases: IRTA Fc-fusion
[1] = target: T1, IRTA1 extracellular domain-Fc fusion protein (human, UniProt Q96PJ5 20-387)
T1 construct: Whole entry named; also called IRTA1-Fc; IRTA1 (Fc-fusion); not shown: human IgG1 hinge and Fc
T1 sequence: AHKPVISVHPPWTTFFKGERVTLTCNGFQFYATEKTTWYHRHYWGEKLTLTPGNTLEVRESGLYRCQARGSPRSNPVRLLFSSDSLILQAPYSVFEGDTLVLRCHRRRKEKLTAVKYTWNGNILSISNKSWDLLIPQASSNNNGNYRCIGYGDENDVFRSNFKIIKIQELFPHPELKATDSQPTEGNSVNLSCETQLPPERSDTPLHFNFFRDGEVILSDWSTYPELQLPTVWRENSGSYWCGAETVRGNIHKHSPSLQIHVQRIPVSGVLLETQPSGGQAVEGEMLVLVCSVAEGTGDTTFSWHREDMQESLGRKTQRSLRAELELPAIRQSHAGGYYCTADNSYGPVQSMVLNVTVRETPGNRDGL
Description: (§1) Each Fc-fusion protein indicated on the top of the column was captured on ELISA plates using secondary antibody (goat anti-human IgG). After washing, 100 ng/50 μl/well of MAbs were added, followed by HRP-labeled goat anti-mouse IgG and TMBZ substrate. The signals in ELISA were normalized for the amounts of each Fc-fusion protein on the plates using HRP-goat anti-human Fc. The controls are MAbs 9E10 (anti-myc tag, IgG1), BerH2 (anti-CD30, IgG1), T408 (anti-CD30, IgG2a), T420 (anti-CD30, IgG2b) and HRP-goat anti-human Fc (1/2400 dilution). […] Two days after transfection, the cells were harvested and incubated with 200 ng/100 μl of each MAb, followed by PE-conjugated goat anti-mouse IgG F(ab′)2. […] In the positive control panels, the MAbs cross-reactive to other IRTAs were used. They are F26 (anti-IRTA1 and anti-IRTA2, IgG2b), F109 (anti-IRTA3, IgG2b), F47 (anti-IRTA4, IgG2a), and F69 (anti-IRTA5, IgG2a). BerH2 (anti-CD30, IgG1) was also used. “+” indicates more than 1.5-fold than that of the control; “++” indicates more than 10-fold mean fluorescence intensity than that of the negative control.
(§2) ELISA. In a typical indirect ELISA for the screening of hybridomas, microtiter plates (MaxiSorp; Nalge Nunc, Rochester, N.Y.) were coated with 100 ng/50 μl/well of goat anti-human IgG in phosphate buffered saline (PBS) for 2 hours at room temperature. Next, 50 ng/100 μl/well of IRTA2-Fc in blocking buffer (25% DMEM, 5% FBS, 25 mM HEPES, 0.5% bovine serum albumin, 0.1% sodium azide in PBS) was added to each well and incubated for 2 hours at room temperature. After washing with PBS containing 0.05% Tween 20, 50 μl of the hybridoma supernatants were added and incubated for 2 hours at room temperature. After washing, the bound MAbs were detected by a 2-hour incubation with horseradish peroxidase (HRP)-labeled goat anti-mouse IgG (Jackson ImmunoResearch, Grove, Pa.) followed by tetramethylbenzidine (TMB) substrate kit (Pierce, Rockford, Ill.). In some experiments, other IRTA-Fc fusion proteins were used instead of IRTA2-Fc.

[2] = target: T2, IRTA3 extracellular domain-Fc fusion protein (human, UniProt Q96P31 18-573)
T2 construct: Whole entry named; also called IRTA3-Fc; IRTA3 (Fc-fusion); not shown: human IgG1 hinge and Fc
T2 sequence: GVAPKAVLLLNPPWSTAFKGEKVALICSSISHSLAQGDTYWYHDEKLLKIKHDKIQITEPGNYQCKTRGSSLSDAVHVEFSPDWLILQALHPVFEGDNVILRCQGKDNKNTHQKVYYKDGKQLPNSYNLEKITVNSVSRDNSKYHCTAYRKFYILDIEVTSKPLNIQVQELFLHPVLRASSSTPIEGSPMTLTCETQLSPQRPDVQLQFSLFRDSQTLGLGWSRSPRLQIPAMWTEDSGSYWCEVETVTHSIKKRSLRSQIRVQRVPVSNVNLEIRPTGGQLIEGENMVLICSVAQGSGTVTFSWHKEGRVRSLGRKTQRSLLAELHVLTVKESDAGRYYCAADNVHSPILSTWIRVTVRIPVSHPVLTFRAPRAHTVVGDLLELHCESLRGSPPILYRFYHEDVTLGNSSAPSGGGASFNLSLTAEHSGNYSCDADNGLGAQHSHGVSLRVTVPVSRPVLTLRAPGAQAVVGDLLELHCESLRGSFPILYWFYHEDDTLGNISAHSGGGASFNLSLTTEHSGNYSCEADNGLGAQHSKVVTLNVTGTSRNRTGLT
Description: as §1, §2

[3] = target: T3, IRTA4 extracellular domain-Fc fusion protein (human, UniProt Q96LA5 20-401)
T3 construct: Whole entry named; also called IRTA4-Fc; IRTA4 (Fc-fusion); not shown: human IgG1 hinge and Fc
T3 sequence: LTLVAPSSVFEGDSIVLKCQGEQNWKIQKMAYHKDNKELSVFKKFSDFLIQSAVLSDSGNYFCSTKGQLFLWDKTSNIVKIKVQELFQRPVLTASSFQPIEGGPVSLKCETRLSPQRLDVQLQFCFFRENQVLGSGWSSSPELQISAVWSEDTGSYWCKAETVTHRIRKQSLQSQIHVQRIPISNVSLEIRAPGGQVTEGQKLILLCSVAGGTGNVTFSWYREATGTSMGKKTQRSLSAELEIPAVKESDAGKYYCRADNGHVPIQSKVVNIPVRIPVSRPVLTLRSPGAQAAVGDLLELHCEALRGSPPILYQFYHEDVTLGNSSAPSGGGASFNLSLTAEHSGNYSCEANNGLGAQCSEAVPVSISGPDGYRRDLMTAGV
Description: as §1, §2

[4] = target: T4, IRTA5 extracellular domain-Fc fusion protein (human, UniProt Q96LA6 17-307)
T4 construct: Whole entry named; also called IRTA5-Fc; IRTA5 (Fc-fusion); not shown: human IgG1 hinge and Fc
T4 sequence: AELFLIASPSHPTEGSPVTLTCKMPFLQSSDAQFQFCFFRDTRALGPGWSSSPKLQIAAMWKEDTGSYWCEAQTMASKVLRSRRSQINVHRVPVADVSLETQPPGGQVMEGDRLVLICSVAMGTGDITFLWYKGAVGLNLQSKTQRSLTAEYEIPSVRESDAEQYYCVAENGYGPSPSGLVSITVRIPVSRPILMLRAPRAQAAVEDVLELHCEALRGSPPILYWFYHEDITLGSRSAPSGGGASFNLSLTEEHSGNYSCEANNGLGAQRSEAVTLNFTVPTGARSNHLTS
Description: as §1, §2

Measured: binding result

B1: F25 (antibody, IgG2a, V domains shown)
VH: EVQLQQSGPELVKPGTSVKMSCKASGYSFTGYFMNWMMQNHGKSLEWIGRINLYNGDTFYNQKFKDKATLTVDKSSNTVHMEFRSLASEDSAVYYCASSLYYFDYWGQGTTFTVSS
VL: DIVMTQSHKFMSTSVGDRVNITCKASQDVGTNVAWYQQKPGQSPKLLIYWASTRQTGVPDRFTGSGSGTDFTLTISNVQSEDLSDYFCQQYSSYPLTFGAGTKLELKR
notes: mouse hybridoma MAb, IgG2a, kappa; also called MAb F25; biotin-MAb F25
no binding: [1] | [2] | [3] | [4]
